Experimental data published in patent US8603949B2, “Libraries of optimized cytochrome P450 enzymes and the optimized P450 enzymes” (California Institute of Technology, priority 2003, dated 2013).
Blank lines part the entries; values can stand above or below the molecule they belong to.

What was measured:
[1] = Thermostability (loss of Soret band at increasing temperatures); assay type: physicochemical; conditions: cell extracts heated 10 minutes
Experimental: Thermostability was assayed by monitoring the loss of the Soret band at increasing temperatures. […] However, thermostability may be important for retention of catalytic activity: the two chimeras that lacked peroxygenase activity were also the least thermostable.
Cell extracts were heated in a thermocycler for 10 minutes at various temperatures, followed by cooling to 4° C. Extracts were centrifuged for 5 minutes at 3500×g to remove any precipitates. Carbon monoxide reduced difference spectroscopy was used to quantitate the amount of P450. The reduction of the carbon monoxide peak was monitored over a range of temperatures.

[2] = Peroxidase activity with ABTS and H2O2; assay type: biochemical; conditions: for Peroxidase activity: 10 mM ABTS, 20 mM H2O2, pH 5.0, activities <0.2 not detectable (N.D.); for peroxidase activity relative to parents: ABTS
Description: P450s can reduce peroxide to water (and a proton) using a mechanism similar to that of peroxidases, although the intrinsic rate for P450s is many orders of magnitude slower. (Mansuy, D., Comp Biochem Physiol C Pharmacol Toxicol Endocrinol 121, 5-14 (1998)). It has been proposed that the earliest P450 function may have been as a peroxidase. (Gotoh, O., Cytochrome P450, 2nd Edition, pp. 255-272 (1993)). To investigate how recombination affects P450 peroxidase activity, the colorimetric substrate 2,2′-azino-bis(3-ethylbenzothiazoline-6-sulfonate) (ABTS) was used to monitor this reaction (Childs et al., Biochem J 145,93-103 (1975)).
This example provides an example of how one can measure peroxidase activity. Initial rates of peroxidase activity were measured by monitoring the accumulation of the radical cation of ABTS at 414 nm (Childs et al., Biochem J., 145:93-103 (1975)). Enzyme (1 μM) was mixed with 10 mM ABTS in 200 mM phosphate buffer (pH 5.0) in a cuvette at room temperature. Samples were zeroed and reactions were initiated with the addition of H2O2 to a concentration of 20 mM. The absorbance at 414 nm was monitored for 5 minutes. Rates were determined from the steepest portion of the time course. An extinction coefficient of […] for ABTS was used.

[3] = Peroxygenase substrate activity profile; assay type: biochemical; conditions: 20 mM H2O2
Experimental: The chimeras were assayed for hydroxylation of p-nitrophenoxydodecanoic acid (12-pNCA), a fatty acid analog that is hydroxylated by CYP102A1 and CYP102A2 to yield p-nitrophenolate (Schwaneberg et al., Anal Biochem 269,359-366 (1999)). […] When hydroxylation rates for the parent CYP102 enzymes were monitored using the maximum soluble concentrations of these substrates, activity could only be detected on 2-phenoxy-ethanol.
Chimeras were assayed for peroxygenase activity on 12-pNCA, 2-phenoxy -ethanol and allyloxy-benzene. […] Rates are reported in nmol product/nmol P450/minute. […] Those with no activity include 65-256 and 277-365. Those with new activity include 165-256, 191-335, and 43-135.
This Example provides one method by which peroxygenase activity of a P450 enzyme may be characterized. First order rates for p-nitrophenolate accumulation were determined using 1 μM enzyme, 20 mM H2O2, 250 μM 12-pNCA and 0.5% dimethyl sulfoxide (DMSO) in 100 mM Tris-HCl (pH 8.2) at room temperature. Enzyme, substrate, buffer and DMSO were combined in a cuvette and zeroed at 410 nm. Reaction mixtures were incubated for 4 minutes and initiated by the addition of H2O2 to a final concentration of 20 mM. Initial rates were determined by monitoring the accumulation of p-nitrophenolate at 410 nm, and data from the first six seconds were used to determine initial rates. […] The extinction coefficient of p-nitrophenolate is 13,200 M^−1cm^−1 (Schwaneberg et al., Anal Biochem 269:359-366 (1999)).
Rates on 2-phenoxy-ethanol and allyloxy-benzene were determined using 2 μM enzyme, 20 mM H2O2, 1% DMSO, and 1% acetone in 100 mM N-[2-hydroxyethyl]piperazine-N′-[3-propanesulfonic acid] (Epps) (pH 8.2) at room temperature. Substrate concentrations for 2-phenoxy-ethanol (100 mM) and allyloxy benzene (50 mM) maintained saturation. Reactions were initiated by the addition of H2O2 and quenched at appropriate times using an equal volume of a solution containing 4M urea and 100 mM NaOH. 120 μl of 0.6% 4-AAP was added, followed by mixing and addition of 120 μl of 0.6% potassium persulfate. Color was allowed to develop for 20 minutes before absorbance was read at 500 nm. Rates were determined from the linear region of the time course. The major products were determined by GC/MS to be the hemiacetal, which decomposes to phenol. The extinction coefficient for the 4-AAP/phenol complex was determined to be 4,800 M^−1cm^−1. The results can be seen in FIG. 4.

substrate activity profile relative to parents [3]: parent-like profiles
B1: Chimera 364-403: CYP102A1 heme domain with residues 364-403 from CYP102A2 (protein)
chain: TIKEMPQPKTFGELKNLPLLNTDKPVQALMKIADELGEIFKFEAPGRVTRYLSSQRLIKEACDESRFDKNLSQALKFVRDFAGDGLATSWTHEKNWKKAHNILLPSFSQQAMKGYHAMMVDIAVQLVQKWERLNADEHIEVPEDMTRLTLDTIGLCGFNYRFNSFYRDQPHPFITSMVRALDEAMNKLQRANPDDPAYDENKRQFQEDIKVMNDLVDKIIADRKASGEQSDDLLTHMLNGKDPETGEPLDDENIRYQIITFLIAGHETTSGLLSFALYFLVKNPHVLQKAAEEAARVLVDPVPSYKQVKQLKYVGMVLNEALRLWPTAPAFSLYAKEDTVLGGEYPLEKGDELMVLIPQLHRDRDAWGKDAEEFRPERFEHQDQVPHHAYKPFGNGQRACIGMQFALHEATLVLGMMLKHFDFEDHTNYELDIKETLTLKPEGFVVKAKSKKIPLGGIPSPST
modifications: Chimeric Cytochrome P450 heme group sequence from Bacillus megaterium and Bacillus subtilis
notes: CYP102A1 heme domain with residues 364-403 from CYP102A2
Tm [1]: 51 °C
Peroxidase activity [2]: 1 nmol product/nmol P450/min

substrate activity profile relative to parents [3]: altered activity
B2: Chimera 169-197M: mirror chimera of 169-197, sequences from opposite parents at every position (protein)
chain: KETSPIPQPKTFGPLGNLPLIDKDKPTLSLIKLAEEQGPIFQIHTPAGTTIVVSGHELVKEVCDEERFDKSIEGALEKVRAFSGDGLATSWTHEPNWRKAHNILMPTFSQRAMKDYHEKMVDIAVQLIQKWARLNPNEAVDVPGDMTRLTLDTIGLCGFNYRFNSYYREQPHPFITSMVRALDEAMNKLQRANPDDPAMVRTKRQFRYDIQTMFSLVDSIIAERRANGDQDEKDLLARMLNVEDPETGEKLDDENIRFQIITFLIAGHETTSGLLSFATYFLLKHPDKLKKAYEEVDRVLTDAAPTYKQVLELTYIRMILNESLRLWPTAPAFSLYPKEDTVIGGKFPITTNDRISVLIPQLHRDRDAWGKDAEEFRPERFEHQDQVPHHAYKPFGNGQRACIGMQFALHEATLVLGMILKYFTLIDHENYELDIKQTLTLKPGDFHISVQSRHQEAIHADVQAAE
modifications: Chimeric Cytochrome P450 heme group sequence from Bacillus megaterium and Bacillus subtilis
Tm [1]: 43 °C
Peroxidase activity [2]: 0.3 nmol product/nmol P450/min
peroxidase activity relative to parents [2]: did not show similarly enhanced levels

substrate activity profile relative to parents [3]: parent-like profiles
B3: Chimera 285-341: CYP102A1 heme domain with residues 285-341 from CYP102A2 (protein)
chain: TIKEMPQPKTFGELKNLPLLNTDKPVQALMKIADELGEIFKFEAPGRVTRYLSSQRLIKEACDESRFDKNLSQALKFVRDFAGDGLATSWTHEKNWKKAHNILLPSFSQQAMKGYHAMMVDIAVQLVQKWERLNADEHIEVPEDMTRLTLDTIGLCGFNYRFNSFYRDQPHPFITSMVRALDEAMNKLQRANPDDPAYDENKRQFQEDIKVMNDLVDKIIADRKASGEQSDDLLTHMLNGKDPETGEPLDDENIRYQIITFLIAGHETTSGLLSFALYFLVKNPDKLKKAYEEVDRVLTDAAPTYKQVLELTYIRMILNESLRLWPTAPAFSLYPKEDTVIGGEYPLEKGDELMVLIPQLHRDKTIWGDDVEEFRPERFENPSAIPQHAFKPFGNGQRACIGQQFALHEATLVLGMMLKHFDFEDHTNYELDIKETLTLKPEGFVVKAKSKKIPLGGIPSPST
modifications: Chimeric Cytochrome P450 heme group sequence from Bacillus megaterium and Bacillus subtilis
notes: CYP102A1 heme domain with residues 285-341 from CYP102A2
Tm [1]: 53 °C
Peroxidase activity [2]: 2.1 nmol product/nmol P450/min

B4: CYP102A2: parent P450 heme domain from Bacillus subtilis, with the F88A mutation (protein, listed as Bacillus subtilis)
chain: KETSPIPQPKTFGPLGNLPLIDKDKPTLSLIKLAEEQGPIFQIHTPAGTTIVVSGHELVKEVCDEERFDKSIEGALEKVRAFSGDGLATSWTHEPNWRKAHNILMPTFSQRAMKDYHEKMVDIAVQLIQKWARLNPNEAVDVPGDMTRLTLDTIGLCGFNYRFNSYYRETPHPFINSMVRALDEAMHQMQRLDVQDKLMVRTKRQFRYDIQTMFSLVDSIIAERRANGDQDEKDLLARMLNVEDPETGEKLDDENIRFQIITFLIAGHETTSGLLSFATYFLLKHPDKLKKAYEEVDRVLTDAAPTYKQVLELTYIRMILNESLRLWPTAPAFSLYPKEDTVIGGKFPITTNDRISVLIPQLHRDRDAWGKDAEEFRPERFEHQDQVPHHAYKPFGNGQRACIGMQFALHEATLVLGMILKYFTLIDHENYELDIKQTLTLKPGDFHISVQSRHQEAIHADVQAAE
Tm [1]: 44 °C
Peroxidase activity [2]: 0.4 nmol product/nmol P450/min
peroxidase activity relative to parents [2]: low, but detectable peroxidase activity

substrate activity profile relative to parents [3]: parent-like profiles
B5: Chimera 165-256M: mirror chimera of 165-256, sequences from opposite parents at every position (protein)
chain: KETSPIPQPKTFGPLGNLPLIDKDKPTLSLIKLAEEQGPIFQIHTPAGTTIVVSGHELVKEVCDEERFDKSIEGALEKVRAFSGDGLATSWTHEPNWRKAHNILMPTFSQRAMKDYHEKMVDIAVQLIQKWARLNPNEAVDVPGDMTRLTLDTIGLCGFNYRFNSFYRDQPHPFITSMVRALDEAMNKLQRANPDDPAYDENKRQFQEDIKVMNDLVDKIIADRKASGEQSDDLLTHMLNGKDPETGEPLDDENIRYQIITFLIAGHETTSGLLSFATYFLLKHPDKLKKAYEEVDRVLTDAAPTYKQVLELTYIRMILNESLRLWPTAPAFSLYPKEDTVIGGKFPITTNDRISVLIPQLHRDRDAWGKDAEEFRPERFEHQDQVPHHAYKPFGNGQRACIGMQFALHEATLVLGMILKYFTLIDHENYELDIKQTLTLKPGDFHISVQSRHQEAIHADVQAAE
modifications: Chimeric Cytochrome P450 heme group sequence from Bacillus megaterium and Bacillus subtilis
Tm [1]: 50 °C
Peroxidase activity [2]: 3.5 nmol product/nmol P450/min
peroxidase activity relative to parents [2]: did not show similarly enhanced levels

substrate activity profile relative to parents [3]: altered activity
B6: Chimera 70-299: CYP102A1 heme domain with residues 70-299 from CYP102A2 (protein)
chain: TIKEMPQPKTFGELKNLPLLNTDKPVQALMKIADELGEIFKFEAPGRVTRYLSSQRLIKEACDESRFDKSIEGALEKVRAFSGDGLATSWTHEPNWRKAHNILMPTFSQRAMKDYHEKMVDIAVQLIQKWARLNPNEAVDVPGDMTRLTLDTIGLCGFNYRFNSYYRETPHPFINSMVRALDEAMHQMQRLDVQDKLMVRTKRQFRYDIQTMFSLVDSIIAERRANGDQDEKDLLARMLNVEDPETGEKLDDENIRFQIITFLIAGHETTSGLLSFATYFLLKHPDKLKKAYEEVDRVLTDPVPSYKQVKQLKYVGMVLNEALRLWPTAPAFSLYAKEDTVLGGEYPLEKGDELMVLIPQLHRDKTIWGDDVEEFRPERFENPSAIPQHAFKPFGNGQRACIGQQFALHEATLVLGMMLKHFDFEDHTNYELDIKETLTLKPEGFVVKAKSKKIPLGGIPSPST
modifications: Chimeric Cytochrome P450 heme group sequence from Bacillus megaterium and Bacillus subtilis
notes: CYP102A1 heme domain with residues 70-299 from CYP102A2
Tm [1]: 42 °C
Peroxidase activity [2]: 0.8 nmol product/nmol P450/min
